The values that follow are results of earlier work, collected in publication PMC10474108.

For the data set, the target named is tau (full-length, nonphosphorylated) (Homo sapiens) (UniProt P10636).
Chain of UniProt P10636 (P10636 2-758): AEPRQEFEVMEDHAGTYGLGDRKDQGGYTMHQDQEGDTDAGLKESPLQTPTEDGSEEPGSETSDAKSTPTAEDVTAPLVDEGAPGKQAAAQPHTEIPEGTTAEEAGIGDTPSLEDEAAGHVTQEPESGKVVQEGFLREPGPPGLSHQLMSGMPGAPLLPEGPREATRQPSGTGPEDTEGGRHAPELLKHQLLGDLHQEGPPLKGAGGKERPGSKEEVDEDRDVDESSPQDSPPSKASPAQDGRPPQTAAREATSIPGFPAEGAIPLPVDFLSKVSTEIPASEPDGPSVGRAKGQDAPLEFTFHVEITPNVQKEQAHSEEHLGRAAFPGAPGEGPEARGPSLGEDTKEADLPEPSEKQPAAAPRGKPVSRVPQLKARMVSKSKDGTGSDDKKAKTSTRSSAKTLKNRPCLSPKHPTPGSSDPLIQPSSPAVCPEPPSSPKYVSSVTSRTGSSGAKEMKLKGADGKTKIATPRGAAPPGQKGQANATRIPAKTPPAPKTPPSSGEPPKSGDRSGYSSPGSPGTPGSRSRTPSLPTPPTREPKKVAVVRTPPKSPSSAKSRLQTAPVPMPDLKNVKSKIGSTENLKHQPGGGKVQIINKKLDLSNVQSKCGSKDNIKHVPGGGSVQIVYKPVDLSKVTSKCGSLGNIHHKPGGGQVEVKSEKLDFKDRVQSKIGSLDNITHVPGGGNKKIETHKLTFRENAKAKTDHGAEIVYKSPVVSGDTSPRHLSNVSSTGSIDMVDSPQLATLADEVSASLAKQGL

Turning to LRP1 (from UniProt Q07954), the Kd is 0.06 µM.
